According to the domain aggregation screens of Martell et al. (2025):

Assay: soluble fraction after stress (log2 fold change); higher = more stays soluble; pooled small domains, quantitative proteomics
Settings: stress: 50 degC
Method in brief: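 The stress applied to every library was 50°C. These custom libraries of small protein domains were pooled and measured at high throughput with quantitative proteomics as the read-out. Aggregation propensity is expressed as the base-two logarithm of the fold change in how much of each protein remains soluble. The higher the value, the more of that protein stays in solution.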

In order of rising “soluble fraction (log2)” value:
1. HMSGIQNNFITRLKKVLAPTIGIAEEISDLLNISIDSAYRRIRGETDFTFEEIYIITRKHKISIDEIYG  -3.58
2. HMLGFELVGIRGNNPESTIIILERDDYRLVEQGQNINSSVIFSHIDGSRAYFFDGQTYTFLDI  -2.95
3. HMVGMDRYFKIKNIKDSSAAFERDYILHFLKENDWMVSKTAQMIGLERTTLYKKIKQLGLASMLEN  -2.85
4. HMNKSGVVLIRVTVDASGRVTSAAYEPKGSTTSDVELVAEARKAALRTRFTESRTVIEGGVITYIFKL  -2.28
5. HMSRLLTTRQREVFEVATREGFWDVPRRINLSELAKVLGVAKSTLSSQLQRIESAVFHAFTDEIRRQS  -2.16
6. HMKVSDLIGMLGRVTGELAPTGIVLVGNKTWTAISEDASVIASGEQVQVRSVAGLILTVSHQVD  -2.15
7. HMNMPHEIDANFISSLGRLIDNHGKNYGDFQIFREMFLDYFPRFDELSSNNKEKINRRLYKFFETLFG  -1.71
8. HMRPTHYSGPSVIAMINNRVWFSDGSRLAPGEHHDDLEVVGLSPPWSAKVRWQGVEFDVGLFE  -1.45
9. HMEELGKVRPELDGNEIAKVLGITPGPVLGRAYTYLLSVRLDEGPIGPDVARERLLAWWAEQPES  -1.28
10. HMLKEDSAYELGLRIFDQALNDYGTSFIDLKEDEYKKVLSIYGYSNPRQLIINIGLGNVIPHLLARDITE  -1.23
11. HMIKEGDLVFIWNPKKGDSFLIKVQPGQSQGTHFGQIKHSEIMEHNYGEGIRTPKGQVYYLLRPTLGEFTR  -1.14
12. HMSSWAEGLTERERHTLMWITKGLSNKLIARELGISDSTVKVYVKNLLRKLNVNSRLELAAWVHTHPL  -0.906
13. HMFIQLSQEEKKVVEGLQQRSKTHLDALALEVGQNISKTAAMLMELEMKGVVRALPGKYYEL  -0.888
14. HMKNLTERQQRIIALISENPQTTRAEIAGAIGVATKTIERELTTLSNIVYYVGPKKGGHWEIIK  -0.865
15. HMDPSWVPVFNNLRDAILSHQLLPGTRLAEDELSNIYGLGRTVIRSALGALTHEGLLTHIPNRGVHVAKP  -0.819
16. HMLSLKAQVYEIIRQKILQQEYALGEKINIDTVADELKISNSPIREALMMLSQDGLIEMVPNNGARVI  -0.772
17. HMHAEEIAREAKEALERGEEFHFAGITVRSEEALEFLEEWLRKFF  -0.659
18. HMGAAIEYGDRGNTVLQAQRLLIARGYMAGSADGIYGRQMEQAVKRFQKEQGLPESGVVDRRTLQVLIRSR  -0.626
19. HMHDYNTIVGVIEMRDKNIPLTSIRQRYGIGYSGIDLILTRYKDSGLTLKEFLALDPSQAEELIYPPK  -0.622
20. HMKPQIRRHEKITALVREHGFMSVEQLARELEVTPQTIRRDIGILSAENVLRRYHGGAALGD  -0.586
21. HMGVPVTAPMPGKVLKVTVSVGAAVKNGDLVLVLEAMKMENEIFATANGVVKEIRSREGDTVNSGDVMMVI  -0.533
22. HMINIDESIDESLSEDDAVLDLLERASASFTKAQEALLEGDLGRYQTLIEQADRLVAKALELLDEKN  -0.457
23. HMHSKQRDAIFENLRSRKDHPTAEEIYLSLKPAMPAISLATVYRNLAQLENEGLILRLGSGGSARYDGDT  -0.441
24. HMTEELQDMESRIIEAAKRVFVRKGYEATKMSDIALEVGLGRTALHYYFRTKEMLFDAIFGRLMGV  -0.385
25. HMLETLVYPNPTTDKILLSSPVDYHLFSLKGELVLEGRGSSIEVSQLSKGVYFLNTKTQTFKIIK  -0.383
26. HMIVVMKTSASERDLQEVIARIEQFGFATRSIVGSERATVSVLGAPLPDSLQEALERMPGVEEVVRITK  -0.344
27. HMEKERYDTGIGELNRVLGGGLVKGSLILISGDPGIGKSTLLLQTANNISKKYGKVLYVSGEESEEQIKIR  -0.319
28. HMKLEKKWIEAVEKYRRYVLSTGIKHVQKPIEFENFRLGQWYADVRQSYRRGTLSKEKLLEIREINPDFPN  -0.276
29. HMLLTPLEETRLVIEEIVIPQKLTIDLLPRSSAIRKLQHELITHYQLRGTSVGNEPNRRLRIYP  -0.244
30. HMSFPQVELNTNKGRIVLELNSEKAPKTVANFLEYVRDGFYDGVIFHRVIDGFMIQGGGFDENFKEKA  -0.229
31. HMKHSEAIELGKRMLSQALQDVSLVLKKIPEERLQAVAAELNLKTPDELFEKIGLGERLAALVARRLLP  -0.207
32. HMNFFQEIGNSILIELNKKNWTQSMFAHKIGVSDEVFKQIVQGKKALNAVEIAKIANTLDVDPEKLLRK  -0.191
33. HMKEQYTELDWDKVQVNDKVMIKDLNQQVTILSLPDKNNALYIQMGMIKTKVKKEKLAVYNPQLA  -0.185
34. HMGSEYPSNPLASRWAKGVRLYHDEWGYGVIQAARGSEPDDYVITVRFESGAEKSFLPKFQAHSLMIVKD  -0.161
35. HMGQLTDKQILLFSGKLAYEPTFASKYSKAGESYDDFIIRISGDLTDPKKIKEYSPYLKELGF  -0.161
36. HMEFTKSPLDEIAGVGPARKRALLAAFGTAKAVSQAALADLEKTPGVNAATARLVYAHFHEK  -0.143
37. HMEEITLQEQINFIKDMLLNKEKFHLTDVITKKSKIYVVSLFLALLELIRLEEINFRQTQNFSDIIISRI  -0.138
38. HMEKNILPDTSPEKQYEFATSFLKVGDYSTAERAFREFVINNSEHKLAGNAQYWYAETFRIRQ  -0.101
39. HMHHDDHNQQEEIKEKLLAMVADGERHHVTEVRQLDEDWDMVTKVMKELMDEEQLLMDGSYLILSA  -0.0951
40. HMDEEAIELTQEVMKLPPKQREVILLYYYHGLTGKEIAKALGISGAAVSKRLKQAKNQLHFALK  -0.0921
41. HMRHLSVPNRQVEGALDHIRSQGWLAEGMRVFASEDGSARLIPLGPGAPLEMLEPLAKFDVISHEGKPY  -0.0914
42. HMLLTLPEDIITMVRQGTLSAGHARVLAGLESDEMKMTLARQTITNEWSVRQLENAVALMRKS  -0.0766
43. HMNTPALRQRTQDVPALLIHFAKYFATKGQTPISFAPDFLEALKDYPWPGNVRELRNLVESMVV  -0.0746
44. HMAQELPYEKVTMNGKMFYVYHVKAGEGLYLISRTFSVNADEILKFNPSIENGLKSGQVLYIPIK  -0.0691
45. HMLMSDEENAEFTKLYRQLVFKLHPDLNPNQTKDEENLWHKVQMAYKGGDLEEMRSLAIILDAQ  -0.0474
46. HMKNLADNIVALRKKHGLSQEQFAEKIDVTRQAVSNWERRIATPDVETIDLIAKLFDTDLTALVNG  -0.0311
47. HMDIVENSMPNVVGLELNRAKELMTQLGFTNVRYEPTESSRPENEVVYQSVDKDETLDVSSEIIIQYSSGV  -0.0131
48. HMPKETFLNLDEEKRQAIINVLLKNFSEQHISQVKVSAIVSGIGMSRGAFYKYFEDLEDAYRFTISYFSA  -0.0102
49. HMYPDNEQTLSKLAFEFFKKRNIPISQSNINQIVTKSLGDRENLYNELLKIENFSTSGKKLTDNVIKKLIN  0.00831
50. HMPGMLVVYVTGAVRQPGRMVTLAAGSRVSDAIDAAGGLADDADAQALNLSARLNDGDLVHVPSALD  0.0161
51. HMPNDYRKKLEILAKEKGAEYLHTMLTEVDPKSALQIHTNNIKRTIRALEFYHQTGMKISEHNEAEREK  0.0272
52. HMGSVDMVYGDHKINSEHMDLSFKNQTAVLYDKVNYKSSLSMLSADKILVNFLNKYTKIEMNDENNNILIQ  0.059
53. HMGALAITPDFVGQTREEAERFLRDLDLSFDIGGKGDRILRQEPVAGQRMNLDQPMKLWVGSMNA  0.0609
54. HMALSSQQIKDMQSWYGTKADGIWGSKSTTAAGGRDAGAAYSLYSSNKGRYSSYTDYMSYGGG  0.072
55. HMLTEREQDTLNFIRQYIDEQGRSPLVSEIAKGLGIKSQGTTHRYIQALVDAGLLERHVGRTRGLHLT  0.0721
56. HMDTNVKLLSPKQADFFASKLANNQNFSSKFAKVGEDMQPFIERISSELQQDISQVIVYMPYLLESGFKQ  0.0782
57. HMDEPSITYGKVKVQTSLNVRQGPGTQYARIGSLGPNVRIQILGQEGQWYKIKYGNLQGYVHSDYVELEK  0.0784
58. HMNKSYTVPDVRGMTVEEAQEAEGVKDIFTVHVQGTRKTDEYQPGQIVEQDPIAGRTRKSNFVIEVYVAE  0.0819
59. HMYGVAEFDEKGNVLSIEEKPVQPKSNYAVVGLYFYPNKVVGVASGIKPSARGELEITTVNQTFLRDEELK  0.0827
60. HMKISIDNPSVLLDKLATLFPDTSKNKLRKMLTEGRIYVNDNIEHRAKRELINGDTVKILDKTTSKE  0.0915
61. HMPQVALAIDEMKRELASPDIVKTLLATTFKGLSEVNMRQAMLDGMIQGHTIADFFKKDVYAIPFGSGYSL  0.0921
62. HMKQISNTDELETMVKKIIDDNEEQVNKYRGGNEKLFGWFVGQAMKNTGGTANPKVVNEILSKLLK  0.0976
63. HMEPDEQAVKALIAEIDKLSKEKLTLKHEKKLKELREIYDDFTEEEKKLVTNYDILVKMEKRMEVLKKQEG  0.111
64. HMNSRTLAYSDFIRKVDKGEVSAVVIDGEQVQVQTKDGQTFVTIQPQSEQMNDKLVEQLIAKDISVKAERQ  0.158
65. HMISAQEQALRNLKLSNGMTWKALAKALGITERSILSYVAAPGTKGYREMPAEVWHKLENISGH  0.165
66. HMLYETLKKGDQGTSVKTLQEKLKALGYLTGAADGKYGAGTETAVKSFQKAAGLTETGTADPETLSAVYAA  0.17
67. HMKTITVEDEQAGKRLDKALAELFPHYSRSALEKLIKEGQVLVNKSFVKSKYSLKLGDEISLQFEQL  0.173
68. HMEAKQMDAWIVSEAKRQGGKIEPAAAYELSRHTATDTSIASQEIAKLLMYVDFKRPVTREDVVELVSA  0.176
69. HMRLSESLLDDIPGIGAARKRALLQSFGSVRKLRHADAEEIAAKVPGIGLNFAEKIVEALRKK  0.205
70. HMEPPPSYSALLKQISSGKVKELQLVPARREVIVTYPDGRSATVAILANDQQILRTAEAAGTPLLVK  0.207
71. HMPHILEITSSKILDELQDEKKMVYFHFEKQSNQYVYRLIFNSKNELMEFKKSLEKNSSILDVRADM  0.216
72. HMGDAIPVPDVSGFSEDQAMNNLRKVGLRPKATYVADDNTAKGYVTGTSPAKNIEVAPDSEVIVYVSSGP  0.238
73. HMSRVTVDVNPDVLQWAIDKKGKGDIKNKFPKIDEWLNGISKPTIHQLENFAKYVSVPFGYLLLSKPPVE  0.276
74. HMTKVMVPNVVGMSRGEAEEALRGVKLQVDLKREVSDDPEVKPEEVLRQTPDAQTSVPQGSVVTLYVADKP  0.355
75. HMKYEGEDEYYASLVTEKIAAIGTVTEESEDAIKEARAAYDALTSAQKKLVTNYDVLDEAEK  0.371
76. HMKNIINFIVKEDDNNKRVDMILANHDKSLSRTRVKNLILDSKLKINERIVQDPSIKTKLNDKIELEIVEP  0.611
